Patent US20140051120A1 (Genentech, published 2014)
Residue numbers refer to the chain shown, from its start.

T1: mouse EGFL7 (mEGFL7-CB-His) (mouse, UniProt Q9QXT5 22-275)
T1 sequence: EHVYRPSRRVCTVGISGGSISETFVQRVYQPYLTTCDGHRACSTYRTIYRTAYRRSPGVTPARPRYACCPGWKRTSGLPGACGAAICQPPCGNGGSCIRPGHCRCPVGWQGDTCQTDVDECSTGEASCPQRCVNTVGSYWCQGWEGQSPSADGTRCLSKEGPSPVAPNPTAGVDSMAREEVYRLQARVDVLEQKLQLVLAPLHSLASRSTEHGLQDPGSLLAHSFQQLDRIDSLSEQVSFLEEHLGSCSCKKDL

T2: p5 peptide of EGFL7 (human)
T2 construct: also called Peptide P5
T2 peptide: RACSTYRTIYRTA

B1: 18F7.v3 IgG (antibody, name in Kabat numbering, V domains shown)
VH: EVQLVESGGGLVQPGGSLRLSCAASGYTFIDYYMNWVRQAPGKGLEWVGDINLDNGGTHYNQKFKGRFTISRDKSKNTAYLQMNSLRAEDTAVYYCAREGVYHDYDDYAMDYWGQGTLVTVSS
VL: DIQMTQSPSSLSASVGDRVTITCRTSQSLVHINGITYLHWYQQKPGKAPKLLIYRVSNRFSGVPSRFSGSGSGTDFTLTISSLQPEDFATYYCSQSTHVPLTFGQGTKVEIKR
notes: IgG; Kabat numbering; also called 18F7-KA
B2: 18F7.v1 IgG (18F7-graft) (antibody, V domains shown)
VH: B1 VH with K74N, A79L
VL: B1 VL
notes: Expressed as IgG
B3: 18F7.v2 IgG (antibody, name in Kabat numbering, V domains shown)
VH: B1 VH with A79L
VL: B1 VL
notes: IgG; Kabat numbering; also called 18F7-K
B4: 18F7.v4 IgG (antibody, name in Kabat numbering, V domains shown)
VH: B1 VH with A79V
VL: B1 VL
notes: IgG; Kabat numbering; also called 18F7-KV
B5: 18F7.v5 IgG (antibody, V domains shown)
VH: B1 VH
VL: DIQMTQSPSSLSASVGDRVTITCRTSQSLVHINGITYLHWYQQKPGKAPKLLIYRVSNRGSGVPSRFSGSGSGTDFTLTISSLQPEDFATYYCSQSTHVPLTFGQGTKVEIK
notes: IgG; Kabat numbering
B6: 18F7.v6I IgG (antibody, V domains shown)
VH: B1 VH with G56S
VL: B5 VL with N33Q, G60F, S94G
notes: IgG; Variant of 18F7.v6
B7: 18F7.v9 IgG (antibody, V domains shown)
VH: B1 VH with Y32K
VL: B5 VL with G60F
notes: IgG; Kabat numbering
B8: 18F7.v7 IgG (antibody, V domains shown)
VH: B1 VH
VL: B5 VL with G60F, S94A
notes: IgG; Kabat numbering
B9: 18F7.v8 IgG (antibody, V domains shown)
VH: B1 VH
VL: B5 VL with G60F, S94V
notes: IgG; Kabat numbering
B10: 18F7.v6J IgG (antibody, V domains shown)
VH: B1 VH with G56S
VL: B5 VL with G34S, G60F, S94G
notes: IgG; Variant of 18F7.v6
B11: 18F7.v6E IgG (antibody, V domains shown)
VH: B1 VH with G56S
VL: B5 VL with N33S, G60F, S94G
notes: IgG; Variant of 18F7.v6

biological target: T1, mouse EGFL7 (mEGFL7-CB-His); assay: SPR (Biacore), IgG over immobilized mEGFL7-CB at 37 C;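 further: IgG injected as twofold series from 0.5 to 1000 nM, 3 min association and 3.5 min dissociation, reference flow cell subtracted, kinetics fitted to 1:1 Langmuir model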
Description: Affinity determinations were performed by surface plasmon resonance using a BIAcore™-2000. Truncated EGFL7 or p5 peptide was immobilized (approximately 50-200 RU) in 10 mM sodium acetate pH 4.8 on a CMS sensor chip. Purified IgG variants were injected (using a 2-fold serial dilution of 0.5 to 1000 nM in PBST) at a flow rate of 30 μL/min. Each sample was analyzed with 3-minute association and 3.5-minute disassociation. After each injection the chip was regenerated using 10 mM glycine pH 1.7.
Binding response was corrected by subtracting a control flow cell from IgG variant flow cells. A 1:1 Languir model of simultaneous fitting of kₒₙ and koff was used for kinetics analysis.

| Kd [nM] | koff [s⁻¹] | kon [M⁻¹ s⁻¹] | Binder |
| --- | --- | --- | --- |
| 1.64 | 9.05e-05 | 55000 | B1 |
| 2.82 | 0.000274 | 97000 | B2 |
| 1.81 | 0.000198 | 110000 | B3 |
| 4.15 | 0.000208 | 50000 | B4 |
| 1.61 | 0.000117 | 73000 | B5 |
| 21.3 | 0.000488 | 23000 | B6 |
| 1.58 | 9.32e-05 | 59000 | B7 |
| 1.38 | 9.58e-05 | 70000 | B8 |
| 2.04 | 0.000199 | 98000 | B9 |
| 0.8 | 1.64e-05 | 21000 | B10 |
| 9.9 | 0.000474 | 48000 | B11 |

Biological target: T2, p5 peptide of EGFL7
Assay: SPR (Biacore), IgG over immobilized P5 peptide at 37 C;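 further: IgG variants injected at 0.5–1000 nM (2-fold series), 3 min association and 3.5 min dissociation, reference flow cell subtracted, kinetics fitted with a 1:1 Langmuir model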

| Kd [nM] | koff [s⁻¹] | kon [M⁻¹ s⁻¹] | Binder |
| --- | --- | --- | --- |
| 4.22 | 0.000858 | 203000 | B1 |
| 6.3 | 0.002 | 317000 | B2 |
| 2.59 | 0.00119 | 458000 | B3 |
| 7.27 | 0.00132 | 182000 | B4 |
| 2.7 | 0.000892 | 330000 | B5 |
| 16.7 | 0.00316 | 190000 | B6 |
| 3.35 | 0.000763 | 228000 | B7 |
| 2.87 | 0.000718 | 251000 | B8 |
| 2.16 | 0.00102 | 472000 | B9 |
| 5.6 | 0.000607 | 108000 | B10 |
| 5.1 | 0.00154 | 303000 | B11 |
